Reference: US20130136748A1 (Ablynx, published 2013)
“And” between values parts separate entries of the source, which are not always exact repeats. Equal values may be shown once. Read-outs that look alike come from different tables or passages of the source.

T1: cHER3ECD (Maccaca fascicularis HER3 extracellular domain) (Macaca fascicularis, UniProt P21860 20-643 (human entry))
T1 construct: also called cyno HER3ECD; cyno HER3-ECD
T1 chain: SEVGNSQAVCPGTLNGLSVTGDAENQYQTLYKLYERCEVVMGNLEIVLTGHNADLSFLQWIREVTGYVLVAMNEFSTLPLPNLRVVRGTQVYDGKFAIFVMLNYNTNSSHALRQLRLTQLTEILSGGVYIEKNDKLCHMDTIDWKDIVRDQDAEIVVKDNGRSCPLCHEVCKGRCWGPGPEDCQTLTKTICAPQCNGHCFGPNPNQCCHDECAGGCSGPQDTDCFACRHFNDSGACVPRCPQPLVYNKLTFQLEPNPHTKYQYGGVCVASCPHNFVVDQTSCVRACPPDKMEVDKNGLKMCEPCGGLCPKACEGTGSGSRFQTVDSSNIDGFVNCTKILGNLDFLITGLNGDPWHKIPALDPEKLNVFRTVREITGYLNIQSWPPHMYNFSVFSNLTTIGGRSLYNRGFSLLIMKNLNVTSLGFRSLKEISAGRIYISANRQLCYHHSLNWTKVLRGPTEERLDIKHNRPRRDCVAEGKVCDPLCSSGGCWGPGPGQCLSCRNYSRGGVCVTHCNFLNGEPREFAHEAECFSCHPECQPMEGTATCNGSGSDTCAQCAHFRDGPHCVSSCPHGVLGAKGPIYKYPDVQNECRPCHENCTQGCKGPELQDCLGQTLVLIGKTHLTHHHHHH

T2: Chimeric chicken Her3-human domain 2 (AA207-328 human) (chicken/human chimera)
T2 construct: Transmembrane and extracellular regions, on HEK293 cells
T2 chain: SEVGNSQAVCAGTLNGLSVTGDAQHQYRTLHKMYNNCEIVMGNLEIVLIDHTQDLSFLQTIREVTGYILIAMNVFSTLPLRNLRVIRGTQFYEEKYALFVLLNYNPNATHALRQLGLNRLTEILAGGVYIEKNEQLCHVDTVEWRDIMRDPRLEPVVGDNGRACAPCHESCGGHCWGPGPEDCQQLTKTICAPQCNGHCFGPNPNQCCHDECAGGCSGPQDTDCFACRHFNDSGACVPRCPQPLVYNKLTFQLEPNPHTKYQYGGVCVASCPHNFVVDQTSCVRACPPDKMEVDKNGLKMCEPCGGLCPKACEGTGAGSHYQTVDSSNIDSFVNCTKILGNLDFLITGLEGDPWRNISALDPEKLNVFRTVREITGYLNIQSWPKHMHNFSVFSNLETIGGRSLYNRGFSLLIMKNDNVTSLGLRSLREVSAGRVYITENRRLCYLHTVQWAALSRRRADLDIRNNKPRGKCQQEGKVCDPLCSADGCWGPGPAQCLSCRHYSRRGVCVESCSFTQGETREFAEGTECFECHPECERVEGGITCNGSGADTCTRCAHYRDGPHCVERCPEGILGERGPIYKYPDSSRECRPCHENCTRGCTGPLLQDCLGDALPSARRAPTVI


Tests used:
hHER3 full length [1] = biological target: T3, hHER3 full length (human, UniProt P21860 20-1342); test: cell-based or functional assay
human HER2 [2] = biological target: T4, human HER2 (human, UniProt P04626 23-1255); test: FACS, CHO-HER2
T4 construct: also called hHER2

[3] = biological target: T5, human HER3-Fc (R&D Systems, 348-RB) (human, UniProt P21860 20-643); test: HRG competition alphascreen
T5 construct: Bought; also called hHER3-Fc; Fc-HER3; Fc part of the bought chimera not given, not described

[4] = biological target: T6, hHER3 ECD (human HER3 extracellular domain) (human, UniProt P21860 20-643); test: SPR off rate on HER3-ECD
T6 construct: also called recombinant HER3-ECD

[5] = biological target: T6, hHER3 ECD (human HER3 extracellular …); test: ELISA, coated hHER3-ECD
human HER1 [6] = biological target: T7, human HER1 (human, UniProt P00533 25-1210); test: FACS, CHO-HER1
T7 construct: also called EGFR; ErbB1

human HER4 [7] = biological target: T8, human HER4 (human, UniProt Q15303 26-1308); test: FACS CHO-HER4, 2000 nM
[8] = biological target: T1, cHER3ECD (Maccaca fascicularis HER3 …); test: ELISA, coated cHER3-ECD
[9] = biological target: T6, hHER3 ECD (human HER3 extracellular …); test: SPR off rate on HER3-ECD; remark: listed apart in the source
hHER3 full length [10] = biological target: T3, hHER3 full length; test: FACS, 400 nM, competitor 04F10-biotin
human HER2 [11] = biological target: T4, human HER2; test: FACS CHO-HER2, 2000 nM
human HER1 [12] = biological target: T7, human HER1; test: FACS CHO-HER1, 222 nM
hHER3 full length [13] = biological target: T3, hHER3 full length; test: FACS competition with HRG1-β1-EGF, CHO-HER3
human HER2 [14] = biological target: T4, human HER2; test: FACS CHO-HER2, 222 nM
hHER3 full length [15] = biological target: T3, hHER3 full length; test: FACS, 400 nM, competitor 17C08-biotin
hHER3 full length [16] = biological target: T3, hHER3 full length; test: cell-based or functional assay; remark: listed apart in the source
human HER4 [17] = biological target: T8, human HER4; test: FACS, CHO-HER4
human HER4 [18] = biological target: T8, human HER4; test: FACS CHO-HER4, 222 nM
hHER3 full length [19] = biological target: T3, hHER3 full length; test: FACS, 400 nM, competitor 23F05-biotin
hHER3 full length [20] = biological target: T3, hHER3 full length; test: FACS, 400 nM, competitor 18E08-biotin
human HER1 [21] = biological target: T7, human HER1; test: FACS CHO-HER1, 667 nM
[22] = biological target: T5, human HER3-Fc (R&D Systems, 348-RB); test: HRG competition alphascreen; remark: listed apart in the source
hHER3 full length [23] = biological target: T3, hHER3 full length; test: FACS, 400 nM, competitor 21B02-biotin
human HER2 [24] = biological target: T4, human HER2; test: FACS CHO-HER2, 667 nM
[25] = biological target: T5, human HER3-Fc (R&D Systems, 348-RB); test: HRG competition alphascreen; remark: listed apart in the source
human HER1 [26] = biological target: T7, human HER1; test: FACS CHO-HER1, 2000 nM
hHER3 full length [27] = biological target: T3, hHER3 full length; test: cell-based or functional assay; remark: listed apart in the source
[28] = biological target: T5, human HER3-Fc (R&D Systems, 348-RB); test: SPR, HER3-Fc captured by anti-Fc
human HER4 [29] = biological target: T8, human HER4; test: FACS CHO-HER4, 667 nM
hHER3 full length [30] = biological target: T3, hHER3 full length; test: cell-based or functional assay; remark: listed apart in the source
hHER3 full length [31] = biological target: T3, hHER3 full length; test: FACS, 400 nM, competitor 04C07-biotin
[32] = biological target: T2, Chimeric chicken Her3-human domain 2 …; test: FACS, HEK293 with chimeric HER3

T8 sequence (Q15303 26-1308 limits assumed): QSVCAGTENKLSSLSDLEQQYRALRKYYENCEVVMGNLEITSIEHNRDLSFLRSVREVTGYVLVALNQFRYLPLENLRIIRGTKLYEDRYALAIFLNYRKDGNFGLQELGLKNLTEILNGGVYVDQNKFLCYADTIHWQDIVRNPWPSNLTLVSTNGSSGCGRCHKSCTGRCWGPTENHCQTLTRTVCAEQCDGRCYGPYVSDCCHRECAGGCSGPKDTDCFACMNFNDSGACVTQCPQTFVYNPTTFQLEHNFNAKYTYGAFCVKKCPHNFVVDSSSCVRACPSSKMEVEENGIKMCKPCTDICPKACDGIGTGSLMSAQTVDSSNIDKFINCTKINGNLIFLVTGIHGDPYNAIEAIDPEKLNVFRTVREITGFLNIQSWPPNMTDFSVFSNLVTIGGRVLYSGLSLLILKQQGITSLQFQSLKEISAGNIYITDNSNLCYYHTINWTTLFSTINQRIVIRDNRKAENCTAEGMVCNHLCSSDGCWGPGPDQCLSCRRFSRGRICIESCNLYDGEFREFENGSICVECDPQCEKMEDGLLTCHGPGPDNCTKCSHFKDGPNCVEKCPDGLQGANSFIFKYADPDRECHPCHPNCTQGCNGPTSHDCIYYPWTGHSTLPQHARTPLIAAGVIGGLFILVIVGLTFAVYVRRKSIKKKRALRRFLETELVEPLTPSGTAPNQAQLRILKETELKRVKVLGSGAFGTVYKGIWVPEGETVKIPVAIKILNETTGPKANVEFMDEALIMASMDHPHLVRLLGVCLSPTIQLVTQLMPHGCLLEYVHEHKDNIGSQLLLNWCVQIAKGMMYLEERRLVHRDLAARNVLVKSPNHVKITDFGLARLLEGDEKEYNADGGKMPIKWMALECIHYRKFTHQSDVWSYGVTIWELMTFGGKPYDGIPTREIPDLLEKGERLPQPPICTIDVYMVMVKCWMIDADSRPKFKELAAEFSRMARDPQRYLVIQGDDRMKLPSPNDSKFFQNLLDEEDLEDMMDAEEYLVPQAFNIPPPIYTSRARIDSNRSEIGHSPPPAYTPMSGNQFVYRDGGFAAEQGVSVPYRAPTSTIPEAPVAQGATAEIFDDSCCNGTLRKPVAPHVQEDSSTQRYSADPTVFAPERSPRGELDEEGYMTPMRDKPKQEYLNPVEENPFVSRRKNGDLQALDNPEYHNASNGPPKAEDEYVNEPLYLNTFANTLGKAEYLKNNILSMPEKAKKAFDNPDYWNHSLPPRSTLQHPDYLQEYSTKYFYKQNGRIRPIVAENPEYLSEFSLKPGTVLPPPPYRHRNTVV

Binder | binding result (human HER2 [2]) | EC50 [5] | binding result (human HER1 [6]) | MCF (human HER4 [7]) | EC50 [8] | % competition (hHER3 full length [10]) | MCF (human HER2 [11]) | MCF (human HER1 [12]) | MCF (human HER2 [14]) | % competition (hHER3 full length [15]) | IC50, HRG1-β1 induced pAkt, MCF-7 (hHER3 full length [16]) | binding result (human HER4 [17]) | MCF (human HER4 [18]) | % competition (hHER3 full length [19]) | % competition (hHER3 full length [20]) | MCF (human HER1 [21]) | % competition (hHER3 full length [23]) | MCF (human HER2 [24]) | MCF (human HER1 [26]) | IC50, HRG1-β1 induced pHER3, MCF-7 (hHER3 full length [27]) | further results
17B05 (VHH, also called HER3MS17B05; HER3MS017B05) VHH: EVQLVESGGGLVQPGGSLRLSCAASGSIGGLNAMAWYRQAPGKERELVAGIFGVGSTRYADSVKGRFTISRDIAKNTVFLQMNSLNSEDTAVYYCRMSSVTRGSSDYWGQGTQVTVSS | no binding (tested: 2000 nM) | 0.63 nM | no binding (tested: 2000 nM) | 116 | 0.66 nM | 68% | 134 | 85 | 84 | 0% | 7.83e-09 M | no binding (tested: 2000 nM) | 142 | 0% | 0% | 64 | 0% | 86 | 49 | 5.34e-09 M | IC50 pHER3 blocking, HRG stimulated MCF7 (hHER3 full length [1]): 4.52e-09 M; IC50 [3]: 0.34 nM and 0.93 nM; koff [4]: 0.00018 s⁻¹ and 0.0002 s⁻¹; koff [9]: 0.00018 s⁻¹ and 0.0002 s⁻¹; IC50 (hHER3 full length [13]): 33.4 nM; IC50, HRG1-β1 induced pERK1/2, MCF-7 (hHER3 full length [16]): 2.36e-09 M; IC50 [22]: 0.78 nM; % inhibition [25]: 87%; IC50 [25]: 0.755 nM; IC50, HRG1-β1 induced pHER3, MDA-MB468 (hHER3 full length [27]): 2.79e-08 M; Kd [28]: 0.11 nM; kon [28]: 390000 M⁻¹ s⁻¹; MCF (human HER4 [29]): 90; IC50, EGF induced pHER3, CHO EGFR/HER3 (hHER3 full length [30]): 3.43e-10 M; IC50, TGFα induced pHER3, CHO EGFR/HER3 (hHER3 full length [30]): 8.15e-10 M; IC50, epiregulin induced pHER3, CHO EGFR/HER3 (hHER3 full length [30]): 2.48e-10 M; % competition (hHER3 full length [31]): 100%
18E08 (VHH) VHH: EVQLVESGGGLVQPGGSLRLSCAASGTLFKINAMGWYRQAPGKQRELVALITSSDTTDYAESVEGRFTISRDNTWNAVYLQMNSLKPEDTAVYYCHSDHYSMGVPEKRVIMYGQGTQVTVSS | no binding (tested: 2000 nM) | 4.7 nM | no binding (tested: 2000 nM) | 115 | 4.4 nM | 0% | 78 | 61 | 53 | 63% | 5.69e-08 M | no binding (tested: 2000 nM) | 91 | 0% | 86% | 62 | 4% | 52 | 64 | 6.39e-08 M | inhibition of HRG1-β1 induced pERK1/2, MCF-7 (hHER3 full length [16]): < 50 % inhibition; binding result [32]: binds; IC50, HRG1-β1 induced pHER3, MDA-MB468 (hHER3 full length [27]): 1.01e-07 M; Kd [28]: 53.8 nM; kon [28]: 10400 M⁻¹ s⁻¹; MCF (human HER4 [29]): 80; % competition (hHER3 full length [31]): 0%
